B1: Hairpin Ribozyme (parent)
chain: GUCCUCUUUCACGUGCGCGUGAAAGAGAGAAGUGAACCAGAGAAACACACGUUGUGGUAUAUUACCUGGUA

The series covers variants of B1. The experiment in a line: self-cleavage, relative activity (ratio to wild type); higher = more cleavage; co-transcriptional.
For GUCCUCUUUCACGUGCGCGUGAAAGUGAGAAGUGAACCAGAGAAACACACGUUGUGGUAUUUUACCUGGUA, the self-cleavage came out at 0.15.
As to GUCCUCUUUCACGUGCGCGUGAAAGAAAGAAGUGAACCAGAGAAACACACGUUGUGGGAUAUUACCUGGUA, the self-cleavage came to 0.151.
The result for GUCCUCUUUCACGUGCGCGUGAAAGUGAGAAGUGAACCAGAGAAACACACGUUGUGUUAUAUUACCUGGUA reads 0.143; that for GUCCUCUUUCACGUGCGCGUGAAAGAAAGAAGUGAACCAGAGAAACACACGUUGUGUUAUAUUACCUGGUA, 0.157.
The result for GUCCUCUUUCACGUGCGCGUGAAAGAAAGAAGUGAACCUGAGAAACACACGUUGUGGUAUAUUACCUGGUA reads 0.166.
To GUCCUCUUUCACGUGCGCGUGAAAGAAAGAAGUGAACCGGAGAAACACACGUUGUGGUAUAUUACCUGGUA belongs 0.121; to GUCCUCUUUCACGUGCGCGUGAAAGUGAGAAGUGAACCAGAGAAACACACGUUGUGGUAUAUCACCUGGUA, 0.199.
In the case of GUCCUCUUUCACGUGCGCGUGAAAGAAAGAAGUGAACCAGAGAAACACACGUUGUGGUAAAUUACCUGGUA, the self-cleavage worked out at 0.334.
GUCCUCUUUCACGUGCGCGUGAAAGAAAGAAGUGAGCCAGAGAAACACACGUUGUGGUAUAUUACCUGGUA: the self-cleavage was determined as 0.42.
To GUCCUCUUUCACGUGCGCGUGAAAGAAAGAAGUGACCCAGAGAAACACACGUUGUGGUAUAUUACCUGGUA belongs 0.253; to GUCCUCUUUCACGUGCGCGUGAAAGUGAGAAGUGAACCAGAGAAACACACGUUUUGGUAUAUUACCUGGUA, 0.34.
The result for GUCCUCUUUCACGUGCGCGUGAAAGAAAGAAGUGAACAAGAGAAACACACGUUGUGGUAUAUUACCUGGUA reads 0.127; that for GUCCUCUUUCACGUGCGCGUGAAAGUGAGAAGUGAACCAGUGAAACACACGUUGUGGUAUAUUACCUGGUA, 0.989; that for GUCCUCUUUCACGUGCGCGUGAAAGUGAGAAGUGAACCAGGGAAACACACGUUGUGGUAUAUUACCUGGUA, 0.841.
The result for GUCCUCUUUCACGUGCGCGUGAAAGAAAGAAGUGAACCAGAGAAACACACGUUGUGGUAUAUUACCUGUUA reads 0.182; that for GUCCUCUUUCACGUGCGCGUGAAAGUGAGAAGUGAACCAAAGAAACACACGUUGUGGUAUAUUACCUGGUA, 0.175; that for GUCCUCUUUCACGUGCGCGUGAAAGUGAGAAGUGAACCAUAGAAACACACGUUGUGGUAUAUUACCUGGUA, 0.131.
For the variant GUCCUCUUUCACGUGCGCGUGAAAGAACGAAGUGAACCAGAGAAACACACGUUGUGGUAUAUUACCUGGUA, the self-cleavage was determined as 0.295.
To GUCCUCUUUCACGUGCGCGUGAAAGAAGGAAGUGAACCAGAGAAACACACGUUGUGGUAUAUUACCUGGUA belongs 0.36; to GUCCUCUUUCACGUGCGCGUGAAAGUGAGAAGUGAACCAGAGAAACACACGUUGUGGAAUAUUACCUGGUA, 0.391.
The result for GUCCUCUUUCACGUGCGCGUGAAAGAAAGAAGUGAACCAGAGAACCACACGUUGUGGUAUAUUACCUGGUA reads 0.186.
To GUCCUCUUUCACGUGCGCGUGAAAGAAAGAAGUGAACCAGAGAAGCACACGUUGUGGUAUAUUACCUGGUA belongs 0.196; to GUCCUCUUUCACGUGCGCGUGAAAGUGAGAAGUGAACCAGAGAAACACACGUUGUGGUAUAUUGCCUGGUA, 0.399; to GUCCUCUUUCACGUGCGCGUGAAAGAAAGAAGUGAACCAGAGAAACAGACGUUGUGGUAUAUUACCUGGUA, 0.151.
GUCCUCUUUCACGUGCGCGUGAAAGUGAGAAGUGAACCAGAGAAACACACGUAGUGGUAUAUUACCUGGUA: the self-cleavage was 0.474.
To GUCCUCUUUCACGUGCGCGUGAAAGUGAGAAGUGAACCAGAGAAAAACACGUUGUGGUAUAUUACCUGGUA belongs 0.146.
The result for GUCCUCUUUCACGUGCGCGUGAAAGAAAGAAGUAAACCAGAGAAACACACGUUGUGGUAUAUUACCUGGUA reads 0.551.
The result for GUCCUCUUUCACGUGCGCGUGAAAGAAAGAAGGGAACCAGAGAAACACACGUUGUGGUAUAUUACCUGGUA reads 0.0835; that for GUCCUCUUUCACGUGCGCGUGAAAGAAAGAAGCGAACCAGAGAAACACACGUUGUGGUAUAUUACCUGGUA, 0.0597.
As for GUCCUCUUUCACGUGCGCGUGAAAGUGAGAUGUGAACCAGAGAAACACACGUUGUGGUAUAUUACCUGGUA, the self-cleavage amounted to 0.0397.
The result for GUCCUCUUUCACGUGCGCGUGAAAGAAAGAAGUGAACCAGAGGAACACACGUUGUGGUAUAUUACCUGGUA reads 0.0988; that for GUCCUCUUUCACGUGCGCGUGAAAGAAAGAAGUGAACCAGAGAAACACACGUUGUGGUAUAUUACCUAGUA, 0.241.
To GUCCUCUUUCACGUGCGCGUGAAAGAAAGAAGUGAACCAGAGAAACACACGUUGUGGUAUAUUACCUGGUC belongs 0.95.
In the case of GUCCUCUUUCACGUGCGCGUGAAAGUGAGAAGUGAACCAGAGAAACACACGUUGUGGUAUAUUACCUGGUC, the self-cleavage is 1.19.
To GUCCUCUUUCACGUGCGCGUGAAAGAAAGAAUUGAACCAGAGAAACACACGUUGUGGUAUAUUACCUGGUA belongs 0.0607; to GUCCUCUUUCACGUGCGCGUGAAAGUGAGAAGUGAACCAGAGAAACAAACGUUGUGGUAUAUUACCUGGUA, 0.153.
To GUCCUCUUUCACGUGCGCGUGAAAGUGAGAAGUGAACCAGAGAAACACACGUUGUGGUAUAUUACCAGGUA belongs 0.196.
In the case of GUCCUCUUUCACGUGCGCGUGAAAGAAAAAAGUGAACCAGAGAAACACACGUUGUGGUAUAUUACCUGGUA, the self-cleavage is 0.189.
